Legend:
[1] = biological target: native Bovine Collagen Type I (Thermo Fisher) (bovine) (UniProt P02453)
[2] = biological target: FIB3COL1 (Fibroin-III/Collagen Type-I fusion protein) (Araneus diadematus; human)
[3] = biological target: SPIDICOL1 (Spidroin-I/Collagen Type-I fusion protein) (Nephila clavipes; human)
[4] = biological target: FIB3COL1 (Fibroin-III/Collagen Type-I fusion protein) (Araneus diadematus; human); remark: listed apart in the source
[5] = biological target: SPIDICOL1 (Spidroin-I/Collagen Type-I fusion protein) (Nephila clavipes; human); remark: listed apart in the source

Row | degradation of the electrospun scaffold (mass over time) [1] | degradation of the electrospun scaffold (mass over time) [2] | degradation of the electrospun scaffold (mass over time) [3] | hydroxylysine content (amino acid analysis) [4] | hydroxylysine content (amino acid analysis) [5] | Molecule
1 | 64 h | 100 h | 96 h | – | – | collagenase (enzyme)
2 | – | – | – | 39 fold | 36 fold | Lysin Hydroxylase 3 (LH3), exogenous human (enzyme) SDRPRGRDPVNPEKLLVITVATAETEGYLRFLRSAEFFNYTVRTLGLGEEWRGGDVARTVGGGQKVRWLKKEMEKYADREDMIIMFVDSYDVILAGSPTELLKKFVQSGSRLLFSAESFCWPEWGLAEQYPEVGTGKRFLNSGGFIGFATTIHQIVRQWKYKDDDDDQLFYTRLYLDPGLREKLSLNLDHKSRIFQNLNGALDEVVLKFDRNRVRIRNVAYDTLPIVVHGNGPTKLQLNYTYPEHERELGNYVPNGWTPEGGCGFCNQDRRTLPGGQPPPRVFLAVFVEQPTPFLPRFLQRLLLLDYPPDRVTLFLHNNEVFHEPHIADSWPQLQDHFSAVKLVGPEEALSPGEARDMAMDLCRQDPECEFYFSLDADAVLTNLQTLRILIEENRKVIAPMLSRHGKLWSNFWGALSPDEYYARSEDYVELVQRKRVGVWNVPYISQAYVIRGDTLRMELPQRDVFSGSDTDPDMAFCKSFRDKGIFLHLSNQHEFGRLLATSRYDTEHLHPDLWQIFDNPVDWKEQYIHENYSRALEGEGIVEQPCPDVYWFPLLSEQMCDELVAEMEHYGQWSGGRHEDSRLAGGYENVPTVDIHMKQVGYEDQWLQLLRTYVGPMTESLFPGYHTKARAVMNFVVRYRPDEQPSLRPHHDSSTFTLNVALNHKGLDYEGGGCRFLRYDCVISSPRKGWALLHPGRLTHYHEGLPTTWGTRYIMVSFVDP

Source: US20250236651A1
